In this test the target is eIF3 from HeLa cells (human (endogenous in HeLa)) (UniProt Q14152). As to the kind of experiment: native gel or EMSA. (In EMSA bound probe runs differently from free probe, usually more slowly.)

With “eIF2 from HeLa cells (from UniProt P05198 1-315; P20042 1-333) (complex)”, the concentration below which the complex starts to dissociate was in the range of 200 to 300 nM.

For the origin of these results see article PMC3258154.
